In the nanobody polyreactivity screen of Harvey et al. (2022):

Assay: yeast display, Sf9 membrane polyspecificity reagent, FACS + sequencing; frameworks hold sequencing errors
How it was run: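 Genes from sorted yeast were amplified by colony PCR, read by MiSeq 2 × 250 sequencing and filtered on CDR length. These cells carried a synthetic nanobody library in Saccharomyces cerevisiae BJ5465 and were sorted by FACS into low and high (top ~1%) gates on anti-HA and streptavidin fluorescence. Polyreactivity is labelled according to the gate of origin.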

| Sequence | polyreactivity (PSR sort gate) |
| --- | --- |
| QVQLVESGGGLVQAGGSLRLSCAASGFTFRRYDMGWYRQAPGKERELVATLNRGGSTDYADSVKGRFTISRDNAKNTVYFQLNSLKPEETAVYYCATRYYSSRNWSEYYYWGQGTQVTVSS | high polyreactivity |
| QVQLVESGGGIVQAGGSLRLSCAASGSTIDKNAMGWYRQAPGKERELVAAINNGGGTTYYADSVKGRFTISRDNAKNTVFLQMNSLKPEDTAVYYCAAVGKAYWSDYQYRYYYWGQGTQVTVSS | low polyreactivity |
| QVQLVESGGGLVQAGGSLRLICAASGRTFGGYAMASYRQAPGKERELVAAITYSGSSTYYADSVKGRFTISRDNAKNTVYLQMNSLKPEDTAVYYCAARGRQTWYNYWGQGTQVTVSS | high polyreactivity |
| QVQLVETGGGLVQAGGSLRLSCAPSGSIFGLNAMGWYRQAPGKERELVAAINTDGDTYYADSVKGRFTISRDNAKNTVYLQMNSLIPEDTAVFYCAADYYWDPFDSNFGHVPQEYESWGQGTQVTVSS | low polyreactivity |
| QVQLVESGGALVQAGGSLRLSCAASGRTINYYAMGWYRQAPGKERELVAAITWSGSSTYYADSVKGRFTISRDNAKYTVYLQMNSLKPEDTAVYYCNKASYTGYRSKRFYYWGQGTQVTVSS | high polyreactivity |
| QVQLEESGGGLYQAGGSLRLSCAASGSILDFNAMVWYRQAPGKEMELVASIRWSGGSTYYADSVKGRFTISRDYAKNTVYFQMNSLKPEDTAVYYCAAVTYGYYRSRYSSIQPNEYDYLGQGTQVTVSS | high polyreactivity |
| QVQRVESGGGLVQAGGSLRLSCAASGRTFSSYDLGWYRQAPGKERELVAAITSGGSTYYADSVKGRFTISRDNAKNTVYLQMNSLKPDDTAVYYCAADIYWWCSKDYDYWGQGTQVTVSS | high polyreactivity |
| QGQLVESGGGLVQAGGSLRLSCAASGLIFVWYAMGWYRQARGKERELVAAISWSGGSTYYADSVKGRFTISRDNAKNTVYLQMNSLKPEDTAVYYCATDPYGYSYLLVDYNYWGQGTQVTVSS | low polyreactivity |
| QGQLVESGGGLVQAGGSLSLSCAASRLTFYSNAMGWYRPAPGKEREMVAAISWIGASTYYADSVKGRFPISRDNAKNTVYLQMNSLKPEDTAVYYCAARAQARVFGWRFYYWGQGTQVTVSS | high polyreactivity |
| QVQLVESGGGLVQAGGSLRLSCAASGRTFIPYGMGWYRQAPGKERELVAAIRDGGSTNYADSVKGRFTISRDNAKNTVYLQMNSLKPADTAVYYCNADLPVYVDYINGGYGYWGQGTQVTVSS | low polyreactivity |
| QVQLVESGGGLVQAGGSLRLSCAASGRTFDGYTMGWSRQAPGKERELVAAISRTGSTNYADSVKGRFTISRDNAKNTVYLQMNSLEPEDTAVYYCNAARRYFRYSRKTSAWYYYWGQGTQVTVSS | high polyreactivity |
| QVQLVESGGGLVQAGGSLRLSCAASGSIFGAYDMGWSRQAPGKERELVASITSGDSTNYADSVTGRFTISRDNAKNTVYLQMNSLKPEDTAVYYCAADLAVAVAADYDSWGQGTQVTVSS | low polyreactivity |
| QVQLVESGGGLVQAGGSLRLSCAASGRIFRYYAMGWYRQAPGKERELVAAISGGGGTYYADSVKGRFTISRDNATNTVYLQMNSLKPEDTAVYYCNAETYDYWFGYDYWGQGTQVTVSS | high polyreactivity |
| QVQLVDSGGGLVQAGGSLRLRCAASGSTYHYAMAGYRQAPGKERELVASITWRGDTTYYADSVKARFTISRDNAMNTVYFHMNSLKPEDSAVYYCAAYVRRCFAWGQGTQVTVSS | high polyreactivity |
| QVQLVESGGGLVQAGGSLRLSCAASGFNFPYYAMGWYRQAPGKERELVAAISSSGGSTYYADSVKGRFTISRDNAKNTVYLHMNSLKPEDTAVYYCAADAYSGYSDYYWGQGTQVTVSS | low polyreactivity |
| QVQLVESGGGLVQAGGSLRLSCAATGFIFYEYPMGWYRQAPGKERELVASINSDGRTDYADSVKGRFTISRDNAKNTVYLQMNSLKPEDTAVYYCAAALGYYGRHPYDYWGQGTQVTVSS | low polyreactivity |
| QVQLVESGGGIVQAGGSLRLSCAASGRTFYDYAMGWYRPAPGKERELVAAISRRAGSTYYADSVKGRFTISRDISKNSVYLQMISLNPEDTAVYFCAAAYSRRWWRGHHYAFDYWGQGTQVTVSS | high polyreactivity |
| QVQLVESGGGLVQAGGSLRLSCDASGRIFVRYTMGWYRQATGKERELVAAITRSGGTYYADSVKGRFTISRDNATNTVYLQMNSLKPEDTAVYYCAADSWLSLWYEYWGQGTQVTVSS | low polyreactivity |
| QVQLVESGGGLVQAGGSLRLSCAATGSIFNIYTMGRYRQAPGKERELVAVITSSGGKYYADSLKGRFTISRDNAMNTVYLQMNSLKPEDTAVYFCAARRRPYSPHLGYWGQGTQVTVSS | high polyreactivity |
| QVQLVESGGGLVQAGGSLRLSCAAYGFTIYYYTMGWYRQAPGKERELFAAISHSGSSTYYADSVKGRFTISRDNAKKTVNLQMNSLKPEDTAVYYCAASRSKNSALGGRVSIGDYWGQGTQVTVSS | high polyreactivity |
| QVQLVESGGGLVQAGGSLRLSCAASGRTFSKNAMGWYRQAPGKERELVAAISWSGGRTYYADSVKGRFTISRDNAKNTVYLQMNSLKPEDTAVYYCNAYYPGNGPRSTSTRYEYWGQGTQVTVSS | high polyreactivity |
| QVQLVESGGGLVQAGGSLRLSCAASGSTFGYYAMGWSRQAPGKERELVAAIRWSGGSTYADSVKGRFTISRDNAKNTVYLQMNSLKPEDTAVYYCAQYRWYGSVLGGYWGQGTQVTVSS | high polyreactivity |
| QVQLVESGGGLVQAGGSLRLSCAASGSIFKNNAMGWYRQAPGKERELVAAIRSSGGSTYYADSVKGRFTISRDNAKHTVYLQMKSLKPEDTAVYYCAARYRSYPTYYQYNYWGQGTQVTVSS | high polyreactivity |
| QVQLVESAGGLVQAGGSLRLSCAASGSIFSDNPMGWYIQAPGKERALVASITNSGSTNYADSVKGRFTISRDNAKNTVYLQMNILKPEDTAVYYCAFSFLYTYDNWGQGTQVTVSS | low polyreactivity |
| QVQLVESGGGLVQAGGSLRLSCAASGLIFSYYAMGWYRQAPGKEMELVAAITSDDSTYYADSVKGRFTISRDNAKNTVYLQINSLKPEDTAVYYCAARYTMYDTGESSRTYTGFNYWGQGTQVTVSS | low polyreactivity |
| QFQLVESGGGLVQAGGSLRLSCAASGSTFGVNAMGWYRQAPGKERELVAAISSSGSSTYADSVKGRFTISRDNAKNTVYLQMNSLKPEDTAVYYCNKTTLLTVEYDYWGQGTQVTVSS | low polyreactivity |
| QVQLGESGGGLVQAGGSLRLSCAASGSTFWPYAMGWYRQAPGKERELVATIRWSGGSTSYADSVKGRFTISRDNAKNTVYLQMNSVKPEDTAVFYCAARDFHYYRFKTYGYWGQGTQVTVSS | high polyreactivity |
| QVQLVESGGGLVQAGGSLRLSCAASGSTFPTYAMGWYRPAPGKERELVAAITRGGRTYYADSVKGRFTISRDNAKNTVYLQMNSLKPEDTAVYYCAAVYYGAAQYNYWGQGTQVTVSS | high polyreactivity |
| QVQLVESGGGLVQAGGSLRLSCAASGSTLYAYAMGWYRQAPGKERELVAAISRSGGSTYYAYSVKGRFTISRDNAKNTVYLQMNSLKPEDTAVYYCNAYYRYFRSIYDSWGQGTQVTVSS | high polyreactivity |
| QVQLVESGGGLVQAGGSLRLSCAASGFIFIANGMGWNSQAPGKERALVAAITSGGGNTYYADSVKGRFTISRDNAKNTVYLQMNSLKPEDTAVYYCNAPSYGKFDYWGQGTQVTVSS | high polyreactivity |
